Broadly, the EC50 is the concentration that produces a half-maximal response.

The values below come from patent US20230051715A1 (MABWELL THERAPEUTICS, published 2023).

Test [1] concerns the target T1, C1s in normal cynomolgus monkey serum (CMS, CompTech NCYS) (cynomolgus monkey, UniProt A0A2K5VQX9 16-685).
T1 sequence: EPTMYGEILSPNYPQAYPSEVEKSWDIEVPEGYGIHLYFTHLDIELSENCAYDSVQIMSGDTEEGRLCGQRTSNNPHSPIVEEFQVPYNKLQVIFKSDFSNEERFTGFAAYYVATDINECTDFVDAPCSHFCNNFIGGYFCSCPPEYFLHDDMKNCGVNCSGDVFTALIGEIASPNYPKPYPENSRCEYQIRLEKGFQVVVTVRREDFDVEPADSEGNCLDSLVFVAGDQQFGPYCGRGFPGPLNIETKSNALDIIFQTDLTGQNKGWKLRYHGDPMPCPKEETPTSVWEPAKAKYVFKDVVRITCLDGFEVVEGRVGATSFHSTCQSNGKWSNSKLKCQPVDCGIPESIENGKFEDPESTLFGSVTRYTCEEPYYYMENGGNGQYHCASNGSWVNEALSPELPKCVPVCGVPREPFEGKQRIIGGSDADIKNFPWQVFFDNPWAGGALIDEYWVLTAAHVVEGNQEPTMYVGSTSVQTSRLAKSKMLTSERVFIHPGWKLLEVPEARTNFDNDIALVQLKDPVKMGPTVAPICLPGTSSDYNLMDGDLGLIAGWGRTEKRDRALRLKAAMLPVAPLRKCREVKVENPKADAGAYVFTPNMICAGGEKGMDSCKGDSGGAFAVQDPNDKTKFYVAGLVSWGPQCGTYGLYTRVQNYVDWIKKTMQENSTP
Put plainly: cell-based or functional assay.

Test [2] concerns the target T2, C1s in normal human serum (NHS, CompTech NHS) (human, UniProt P09871 16-688).
T2 sequence (looked up): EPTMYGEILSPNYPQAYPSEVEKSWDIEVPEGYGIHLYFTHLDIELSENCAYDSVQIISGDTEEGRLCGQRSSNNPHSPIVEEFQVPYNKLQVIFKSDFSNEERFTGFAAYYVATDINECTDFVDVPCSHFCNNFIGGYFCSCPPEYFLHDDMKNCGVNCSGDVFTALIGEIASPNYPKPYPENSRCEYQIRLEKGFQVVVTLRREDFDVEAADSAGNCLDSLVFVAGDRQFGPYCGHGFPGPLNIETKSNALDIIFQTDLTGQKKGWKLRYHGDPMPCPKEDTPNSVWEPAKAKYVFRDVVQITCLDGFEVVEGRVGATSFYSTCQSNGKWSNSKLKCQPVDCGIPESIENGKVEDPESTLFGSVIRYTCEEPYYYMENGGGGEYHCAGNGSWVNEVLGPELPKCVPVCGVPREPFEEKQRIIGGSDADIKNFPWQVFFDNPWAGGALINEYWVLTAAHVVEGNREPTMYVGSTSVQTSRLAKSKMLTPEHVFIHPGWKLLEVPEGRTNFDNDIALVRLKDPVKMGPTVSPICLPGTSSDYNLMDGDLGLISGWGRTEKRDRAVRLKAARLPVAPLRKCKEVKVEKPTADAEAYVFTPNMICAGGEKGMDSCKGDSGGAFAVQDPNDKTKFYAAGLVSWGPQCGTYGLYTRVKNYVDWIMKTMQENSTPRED
Put plainly: cell-based or functional assay.

Test [3] deals with T3, human C1s deletion mutant 2 (NHC) (human, UniProt P09871 16-437).
T3 construct: C-terminal 6xHis tag; also called HuC1s(NHC); huC1sNHC
T3 sequence: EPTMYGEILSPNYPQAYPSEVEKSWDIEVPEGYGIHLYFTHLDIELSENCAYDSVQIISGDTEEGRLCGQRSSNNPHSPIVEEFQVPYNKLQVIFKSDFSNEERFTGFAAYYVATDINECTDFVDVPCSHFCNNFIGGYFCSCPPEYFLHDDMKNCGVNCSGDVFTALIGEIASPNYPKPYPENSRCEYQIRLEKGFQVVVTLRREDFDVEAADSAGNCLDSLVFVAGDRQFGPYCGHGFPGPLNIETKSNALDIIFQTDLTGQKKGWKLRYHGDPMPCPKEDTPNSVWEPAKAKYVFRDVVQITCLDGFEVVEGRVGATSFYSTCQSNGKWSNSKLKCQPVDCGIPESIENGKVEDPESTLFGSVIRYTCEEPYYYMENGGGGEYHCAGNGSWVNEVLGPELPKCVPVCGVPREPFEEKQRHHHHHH
Put plainly: ELISA, plate coated with 200 ng/well HuC1s(NHC), OD450nm. On the procedure:
(§1) ELISA was carried out by first coating 96-well plates with 200 ng/well of full-length or truncated C1s proteins overnight. The next morning, plates were blocked with SuperBlock T20 blocking buffer (Thermo Scientific 37536) for 1 h with gentle shaking. Then, various concentrations of anti-C1s antibodies diluted in SuperBlock T20 blocking buffer were added to the plates and incubated for 1 h with gentle shaking. Mouse IgG (Sigma-Aldrich 15381) and human IgG1 (BioXCell BP0297) were used as negative controls. The plates were washed before incubating with HRP conjugated secondary antibodies diluted in SuperBlock T20 blocking buffer (goat anti-mouse IgG (H+L) cross-adsorbed secondary antibody HRP (Invitrogen G-21040) or goat anti-human IgG antibody, HRP conjugate (Millipore AP309P)) for 1 h with gentle shaking. At last, the plates were washed and color developed with ELISA liquid HRP substrate (Sigma-Aldrich), followed by stopping the reaction with addition of 1M H₂SO₄ in the same volume as the ELISA liquid substrate. Bound antibody was measured by absorbance at OD₄₅₀ₙₘ.
A general note: In an ELISA, binding on a coated surface is turned into a signal by an enzyme label.

The target in test [4] is T4, human C1s deletion mutant 1 (M151) (human) (UniProt P09871).
T4 sequence: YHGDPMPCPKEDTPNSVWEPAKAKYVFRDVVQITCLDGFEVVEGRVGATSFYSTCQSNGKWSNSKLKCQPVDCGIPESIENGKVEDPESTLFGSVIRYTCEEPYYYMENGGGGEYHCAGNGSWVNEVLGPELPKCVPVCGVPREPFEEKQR
Put plainly: ELISA, plate coated with 200 ng/well HuC1s(M151), OD450nm.

Test [5] concerns the target T5, full-length mouse C1s (produced in house) (mouse, UniProt Q8CG14 16-688).
T5 construct: Called full-length; also called MoC1s; moC1s
T5 sequence: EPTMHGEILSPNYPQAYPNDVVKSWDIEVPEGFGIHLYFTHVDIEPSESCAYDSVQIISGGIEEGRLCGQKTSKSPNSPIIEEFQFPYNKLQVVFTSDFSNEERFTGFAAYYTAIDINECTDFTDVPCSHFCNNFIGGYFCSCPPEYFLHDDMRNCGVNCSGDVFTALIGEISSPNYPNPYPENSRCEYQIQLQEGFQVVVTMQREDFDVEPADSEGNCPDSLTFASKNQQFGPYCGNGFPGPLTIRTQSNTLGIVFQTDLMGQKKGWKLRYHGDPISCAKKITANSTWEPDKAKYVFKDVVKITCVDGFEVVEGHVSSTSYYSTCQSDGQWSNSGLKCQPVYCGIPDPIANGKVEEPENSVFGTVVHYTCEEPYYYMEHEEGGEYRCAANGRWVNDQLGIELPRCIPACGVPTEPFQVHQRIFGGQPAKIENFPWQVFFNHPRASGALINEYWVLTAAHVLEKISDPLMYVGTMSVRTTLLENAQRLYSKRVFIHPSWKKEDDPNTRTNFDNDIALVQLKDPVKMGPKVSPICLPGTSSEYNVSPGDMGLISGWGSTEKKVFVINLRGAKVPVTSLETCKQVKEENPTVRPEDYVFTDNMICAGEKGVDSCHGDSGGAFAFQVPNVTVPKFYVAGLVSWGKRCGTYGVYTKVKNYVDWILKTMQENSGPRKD
Put plainly: ELISA, plate coated with 200 ng/well full-length MoC1s, OD450nm. The procedure:
as §1

The target in test [6] is T6, full-length human C1s (produced in house) (human, UniProt P09871 16-688).
T6 construct: Called full-length; Partly auto-cleaved at R422-I423 on blots; also called HuC1s; Hu C1s
T6 sequence: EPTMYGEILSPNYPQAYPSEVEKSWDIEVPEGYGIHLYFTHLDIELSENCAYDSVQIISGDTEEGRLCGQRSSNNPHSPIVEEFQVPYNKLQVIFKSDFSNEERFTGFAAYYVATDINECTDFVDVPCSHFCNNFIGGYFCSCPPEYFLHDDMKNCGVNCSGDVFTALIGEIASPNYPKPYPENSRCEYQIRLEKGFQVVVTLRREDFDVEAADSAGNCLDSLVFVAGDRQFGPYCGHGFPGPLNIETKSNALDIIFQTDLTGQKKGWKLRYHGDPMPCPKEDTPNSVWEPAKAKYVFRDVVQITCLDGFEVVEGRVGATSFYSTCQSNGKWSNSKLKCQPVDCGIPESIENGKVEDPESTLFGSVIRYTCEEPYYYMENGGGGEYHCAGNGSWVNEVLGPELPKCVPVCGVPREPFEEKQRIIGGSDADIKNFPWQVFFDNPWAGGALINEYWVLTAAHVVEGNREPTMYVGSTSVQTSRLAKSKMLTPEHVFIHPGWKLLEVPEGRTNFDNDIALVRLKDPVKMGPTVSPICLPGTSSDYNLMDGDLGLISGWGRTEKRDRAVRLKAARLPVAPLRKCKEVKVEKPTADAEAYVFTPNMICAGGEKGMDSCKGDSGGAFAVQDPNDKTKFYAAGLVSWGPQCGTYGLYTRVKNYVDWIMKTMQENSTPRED
Put plainly: ELISA, plate coated with 200 ng/well full-length HuC1s, OD450nm. The procedure: as §1

B1: Anti-C1s antibody hz2-8(H1L2) (antibody, V domains shown)
VH: QVQLVQSGAEVKKPGASVKVSCKASGFNIKEYYMHWVRQAPEQGLEWMGWIDPENGDTIYAQKFQGRVTITADTSTNTAYMELSSLRSEDTAVYYCARSRLFFAYWGQGTLVTVSS
VL: DIQMTQSPKSLSASVGDRVTITCRASQDVRTALDWYQQKPGQSPKLLIYSASYRYSGVPSRFSGSGSGTDFTLTISSLQPEDFATYYCQQQYTTPYTFGQGTKLEIKR
notes: Humanized, human IgG1 / kappa
Consider B1, for which the “IC50, inhibition of IgM-induced C4 deposition from CMS” value in test [1] was 0.2 µg/mL. For the same molecule, the “IC50, inhibition of cynomolgus monkey complement-mediated lysis of EA” value in test [1] was 0.1 µg/mL. For the same molecule, in test [2], the “IC50, inhibition of IgM-induced C4 deposition from NHS” value stood at 0.2 µg/mL. Besides, the “IC50, inhibition of human complement-mediated lysis of antibody-sensitized sheep erythrocytes (EA)” value in test [2] came to 0.2 µg/mL. Further, the EC50 in test [3] was 0.003 µg/mL; in test [4] it was 0.003 µg/mL; in test [6] it was 0.002 µg/mL. Besides, the binding result in test [5] was “no binding (tested: 1000 ng/ml (Log 3))”.
